Data set [1] concerns the target T1, Cdc5-R1-R2-D3ΔL (Schizosaccharomyces pombe, UniProt P39964 5-208, del111-146). As to the kind of experiment: pull-down.
The target of data set [2] is T1, Cdc5-R1-R2-D3ΔL. Nature of the data set: pull-down. The source holds these as a separate data set.

Read-outs that look alike come from different tables or passages of the source.

AAGUGUAG (ssRNA) [Bi-U2 ssRNA]: the binding result in the data set with Cdc5-R1-R2-D3ΔL [1] is reported as “binds”.
On to CGUACACCAUCAGGGUACG (structured_RNA) [Bi-MS2 dsRNA], for which the binding result with Cdc5-R1-R2-D3ΔL [2] is “binds”.
In the case of CAGAGAA (ssRNA) [Bi-U6 ssRNA], the binding result with Cdc5-R1-R2-D3ΔL [1] is listed as “binds”.

The values are drawn from PMC4204884.
